experiment: soluble on expression in E. coli; label from the status in PepcDB or PDB records

| Sequence | soluble on expression in E. coli |
| --- | --- |
| SLNERVMMINANGVPIALYNRGHLGSGHFGAVIKASLDDGTLYAAKVPYSQIVPNADATSAELEAEISSARAELVKTIRQELDVRDKLVAKGLTLTETAEQYGLPLCQMTLTLPENKATVVRRGSRLVVVSKEVMLLPLIDGSPSNSLVQSQPPFLFQRAVAREAIIALAKLHELGFAHGDVKLNNMMIDVHGFGHMLDMGSVRPVDSCVSEEDKYYLRLWAPELAKSQHTSQQTCLKRGALDVWALGLAIFEFVCFNRLPYSLSNLPSSLWSRVEHLSRLRLSDFSAKDCNESDPAVMGIVAQFLNPNPEERPELPKFVSSYTFFRQAPGVTSHLTRIPTTELSSHR | not soluble |
| SLNQDEKRTFRLEKEQELRFEVSNENKVYLTLQSGTAEVFGIELPKKKPVELCDTKLAVFTWQGCELQLQGITDLEYVANETPMHLYLKAHYLLDSMRRKARQQGTKGPKVVIVGPQDSGKSSLCQILSCYAMKGGKKILYASIDFQQGSFSIPGAIGASSVEHVTIEDGMIFENNLVYFYGHTVASENPRLLEKLVSNLSNLLDAKLEDSEMDLGHMGFIADSFGSLDGSNYDVLKQVLKEIKANVIIVLGSERLYADIQRDLCSEQRQIIQLPKSGGVVGRDQYLRRRLQEMQLRCYFYGSDGNLNPFTTVVTFDQVHIVRVGIGLHVPATALPLGAQSTLDPLQISQVTPSTELLHCMLGVSQAEEEEQIVDSPVYGFVHVAKVDISKRTISLLAPSPGKLPGSFLVMGSIRWLE | soluble |
| SLNSLVSWQLLLFLCATHFGEPLEKVASVGNSRPTGQQLESLGLLAPGEQSLPCTERKPAATARLSRRGTSMSPPPESSGSPQQPGLSAPHSRQIPAPQGAVMVQREKDLPNYNWNSFGLRFGKREAAPGNHGRSAGR | soluble |
| SLNVLCNNPHTADCNNDAQVDRYFREGTTCLMSPACTSEGYASQHECQQACFVGGEDHSSEMHSSCLGDPPTSCAEGTDITYYDSDSKTCKVLAASCPSGENTFESEVECQVACGAPIEG | soluble |
| SLPSYVVPEEPLLSAPTVAELTQAVNGAVVSGDVALREREVMGVLAAGMTADHVLERLTDGMAVITPGDRSDVVLAVASAHAAEGFPSLSCIVLNGGFQLHPAIAALVSGLRLRLPVIATALGTYDTASAAASARGLVTATSQRKIDTALELMDRHVDVAGLLAQLTI | soluble |
| SLPTGGAPGRRWVGCRDMEHEVFVPVPAERLRDVLADPVRVARAVPGLQQDAGAEPVAGRLKVRIGSHSITYRGSLRLSARGDGTYAVEGDATESRGTGAVALALTLRADDAEGGATLTFTGTATADGRVAELPPDSVASAANRLLARFAENLGTAAQAPPAPEPEPSPQPEPRPASVFDTEVPPSSLADSGGGSDSDSDGDADEDTDAGADADADAQADEKAEAEGDADRGGRTDDEPAVSPPAEAAHARRTMIGRSAEEVDHAPPRGRYAPVPAPQPSAVGAPLRW | soluble |
| SLPWLHRETARSFGGAGSTAGYEQVTAYTLTGQLQSRHLNLPQLDCDYDWNDNGQLIRISGPQESREYRYSDTGRLTGVHTTAANLDIDIPYATDPAGNRLPDPELHPDSTLTAWPDNRIAEDAHYVYRYDEYGRLTEKTDRIPEGVIRMHDERTHHYHYDNQHRLVFYTRIQYGEPLVESRYLYDPLGRRTGKRVWRRERDLTGWMSLSRKPEVTWYGWDGDRLTTVQTGTTRIQTVYRPGSFTPLIRIETENGEREKAQRRSLAEKLQQEGSEDGHGVVFPAELVRMLDRLEEEIRADRVSSESRAWLAQCGLTVEQLEKQVEPEYTPARTLHLYHCDHRGLPLALISEDGNTAWSAEYDEWGNQLNEENPHHLHQPYRLPGQQHDEESGLYYNRHRYYDPLQGRYITPDPIGLRGGWNMYQYPLNPIQVIDPMGLDAIENMTSGGLIYAVSGVPGLIVANSITNSAYQFGYDMDAIVGGAHNGAADAMRYCYLMCRMTKT | not soluble |
| SLPYRGTLVMLMNEEVNKIITLCGKDWAKIGVEFIFLGGKQECENCKIKKTCLKLKEGAKYKIVGLRDGAVQECPLHDEGVVAVEVVELPIIALVDSKIAVEGAKIHYEQRKCDVYDCSMYSLCHPIELNNGETVIVEKVIGDAPEQCRKGHSVIVAELRRAEE | soluble |
| SLQKEANKTYHSSLKDGKLILLLDLDNTLLQATSFAKFNMELPLENFVDDNGEAELYKFYLPQYNFFYYLKFRPYVRQFLQILSLYYELAIYTNATREYADVVIAILDPDRTIFSDRIVARCSSTDRDENKYFSRIYPNVDPKYVIAFDDRKDVWIDIPQSHILKAEHYNFFELSKYDIIS | not soluble |

— the DeepSol protein solubility set
